Consider one substance from paper PMC2189183.

Holding throughout (assay): conjugate formation
Assay [1] has as its target HLA class I antigens of JY cells (human (endogenous in JY)) (UniProt P04439).
The target is the same in assay [2]. The source holds these as a separate data set.
Assay [3] has the same target. This is another data set of the same source.

Like-named read-outs stand apart in the source and are kept apart here.

UniProt P04439, sequence (P04439 whole entry, looked up): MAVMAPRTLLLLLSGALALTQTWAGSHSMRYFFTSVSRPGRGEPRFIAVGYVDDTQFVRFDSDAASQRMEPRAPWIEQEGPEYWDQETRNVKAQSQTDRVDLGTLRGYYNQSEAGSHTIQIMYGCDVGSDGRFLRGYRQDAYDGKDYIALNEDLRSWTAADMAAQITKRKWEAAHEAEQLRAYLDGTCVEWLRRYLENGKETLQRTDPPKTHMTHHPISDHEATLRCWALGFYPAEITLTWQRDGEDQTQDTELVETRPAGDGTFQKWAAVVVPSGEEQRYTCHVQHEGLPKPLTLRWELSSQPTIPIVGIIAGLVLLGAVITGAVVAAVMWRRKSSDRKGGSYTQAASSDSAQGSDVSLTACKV

Turning to “CD8 (human CD8 expressed in the murine T cell hybridoma 16.T8-15) (from UniProt P01732 22-235) (receptor)”, the percent conjugates in assay [1] amounted to 22%; in assay [2], 29%; in assay [3], 42%.
